Results taken from paper PMC3102710.

Target: SARS-CoV nsp10 (SARS-CoV Frankfurt-1)
Assay: pull-down

SARS-CoV nsp16 (enzyme)
% associated: 100%
